Earlier results on 1 substance are cited in paper PMC8305778.

pKd: −log10 of the molar value.

The series has as its target FcεRIα (Homo sapiens) (UniProt P12319). The experiment in a line: given as Ka.
Sequence of UniProt P12319 (P12319 26-257): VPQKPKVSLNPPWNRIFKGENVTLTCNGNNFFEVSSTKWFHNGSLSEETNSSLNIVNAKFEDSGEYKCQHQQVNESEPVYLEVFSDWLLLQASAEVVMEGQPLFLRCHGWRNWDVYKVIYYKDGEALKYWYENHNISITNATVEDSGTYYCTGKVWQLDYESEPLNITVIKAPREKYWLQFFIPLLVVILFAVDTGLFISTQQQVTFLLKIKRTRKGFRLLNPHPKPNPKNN

A word on the pKd: it is the Kd on a negative log10 scale, so that one unit is a factor of ten. IgE Fc (from UniProt P01854): the pKd is 10.00.
